# In the supplement of paper PMC9170038:
# What was measured:
# MS2 coat protein [1] = assay: apparent KD of MS2 coat protein; higher = weaker reporter binding; conditions: Eterna round: R101
# Procedure: (§1)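 RNA-MaP: designed FMN/MS2 RNA switches (84 nt design region) are transcribed on-chip within common flanks and titrated with SNAP-549-labelled MS2 coat protein (about 1-3000 nM) in 100 mM Tris pH 7.5, 80 mM KCl, 4 mM MgCl2, without or with 200 uM FMN. Median apparent KD per design; activation ratio = KD,OFF / KD,ON.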
# MS2 coat protein [2] = assay: apparent KD of MS2 coat protein; designed switch direction (-1 OFF switch, 1 ON switch): 1; higher = weaker reporter binding; conditions: Eterna round: R98
# Procedure: as §1
Sequence,apparent KD of MS2 coat protein (MS2 coat protein [1]; input ligand: FMN 200 uM) [µM],apparent KD of MS2 coat protein (MS2 coat protein [1]; input ligand: none) [µM],apparent KD of MS2 coat protein (MS2 coat protein [2]; input ligand: FMN 200 uM) [µM],apparent KD of MS2 coat protein (MS2 coat protein [2]; input ligand: none) [µM]
AAAGAUUUUCAAGGAUAUGACUCCGAAACGGAGUCAGAAGGUGAGGAUCACCCACCUAGCUCAGCGUCGAAAGACGCUGAGCAA [#SharedSequence ExNG1 - 27] (puzzle (switch architecture): Exclusion NG 1),0.103,0.0135,,
AAAUAAAUCGAAGGAUAUGACCCUCGAGGUGACUAAAAGUCACCUCGAGGGUCAGAAGGUCGAGGAUCACCCGAUCUAAAUAAA [#SharedSequence SLExNG1: 2-1] (puzzle (switch architecture): Small Loop Exclusion NG 1),0.259,0.0162,,
AAUAAUCUUUAAGGAUAUGACUCCGAAACGGAGUCAGAAGGUGAGGAUCACCCAUCUAGCUCAGGGUCGAAAGACCCUGAGCAA [#SharedSequence - ExNG1-11] (puzzle (switch architecture): Exclusion NG 1),0.101,0.0496,,
ACAGGUCGUGAGAAGGCGUGUGGCACCGUCGAAAGACGGUGCAAUUAAAAUCUUCGAGGAUCACCCGAGGAUAUCACGACCUGA [#SharedSequence - IExNG2: 19] (puzzle (switch architecture): Inverted Exclusion NG 2),0.0322,0.0122,,
AGACCUGCUCAGAAGGCGGGUGCGAGGCUGGAAACAGCCUCGAAUUAAAAUCUUCGAGGAUCACCCGAGGAUAUGAGCAGGUCA [#SharedSequence - IExNG2: 16] (puzzle (switch architecture): Inverted Exclusion NG 2),0.019,0.0542,,
"AUAAUAACUUGAGGAUAUCGAGUGGAAUACACUCGAGAAGGCAGGGAAACCUGAGGAUCACCCAGGUAAAUAAUAAUAAUAAUA [Same State NG1 - A3C, U17G Submission 1C]",,,0.0227,0.0213
AUCAGCUCGUCAGGAUAUACGUCACUGCGUCAGCAGUGUGGUAAGAUCACAUGAGGAUCACCCAUGUAGAAGGGACGAGCUGAU [#MiniMS2Turnoff - Ex NG2 #82] (puzzle (switch architecture): Exclusion NG 2),0.273,0.0137,,
CACAGGGAUUCAGGAUAUAUUAGCCGAGGCCGCGUAGAAGGGAAAUCCUGACAUGAGGAUCACCCAUGUUAACCCACCUUCCAU [Fingerlickinggood#3],,,0.0229,0.0273
CCAAUAUAGUGAGGAUAUGCACAGGAUCACCGUGUAGAAGGCAUCAGGUAGAAGGUGCAGAGGAUCACCCUGUAAGGAUAUACA [pwkr2 ssNG1 DX.7],,,0.129,0.406
CCCUUCAGAAGAGGGACAUGAGGAUCACCCAUGUAGGCUGCACAGGAUAUCGAUCGGAGGCGGUACGAGAAGGGUGAUGUCAUU [Riorrebi],,,0.0279,0.0362
"CGAGACACUUGAGGAUAUGCUCAGGAAUACUGAGCAGAAGGCAGGGAAACCUGAGGAUCACCCAGGUAACUGGAAAGUCUCGAA [Same State NG1 - A3C, U17G Submission 5A]",,,0.019,0.0292
"GACGGAUUCUUAGGAUAUGCUCAGGAAUACUGAGCAGAAGGAAGAAUAACCUGAGGAUCACCCAGGUAAUACUGAACGUCAAUA [Same State NG1 - A3C, U17G Submission 9A]",,,0.0237,0.0581
GCAAAUGGGCGAGGAUAUGGGACGGGCCUAAACAGGGCACAUGAGGAUCACCCAUGUCACACGACCCAGAAGGCGCUAAGAACG [Bemave],,,0.144,0.399
GCAGAAGGUGCGGAGGAUCACCCUGUAAGGAUAUGCAUUAGCAAGGAUAUACAGAGGAUCACCCUGUAGAAGGUGCACUUCUGA [pwkr2 ssNG3 DX.8],,,2.12,0.85
GCCAACUUAUGAGGAUAUGGCACCUUAUUGGUGCCAGAAGGCAUGUCAAUUGACAUGAGGAUCACCCAUGUAUUAUAGUUGGCA [Fiskers NG1ss - 20 m2],,,0.112,0.724
GCCAUCGUAUGAGGAUAUGGCACCGAAACGGUGCCAGAAGGCAUGUCAAUAGACAUGAGGAUCACCCAUGUAUUAUCGAUGGCA [MatMod 1 - Jieux - Same State NG 1],,,0.0469,0.469
GCUGUCGCGUGAGGAUAUGGUCGGCAGUGCUGACCAGAAGGCAUGUCGAUAGACAUGAGGAUCACCCAUGUGGUUAGGGCGGCU [salish99_SSNG1_R02_015],,,0.464,0.491
GCUUGCGACGCAGGAUAUGGGUGCCUAAACACGAGGAUCACCCGUGUACAGGAAGCUAAAUGCUCUCAGAAGGGCGUCGCAGGC [United States 9 - Jieux - Same State NG 2],,,0.0175,0.0467
GGAUCGCUUGGAGGAUAUCCAACUAUCCUAGUUGGAGAAGGCCAAGCUACAGAGCUAAGCUUGGAAGUCACUUCGGAUCCACAC [pwkr ssNG1 F9.4.4],,,0.0392,0.0217
GGUUGACGACAAUUACAUGAGGAUCACCCAUGUUGUGGGAUGCAGGAUAUGUGGUAUAUUAAUUAACAGAAGGGCAAUAAUUUU [JR_SSNG3_Sub062],,,0.051,0.0338
GUAGCAUACCGAGGAUAUUCAUACCGGAAACGGACAUGAGGAUCACCCAUGUAAAUUCUAAAUUGGGAGAAGGCGGAAUGCUAC [Xeonanis 75 6],,,0.0466,0.41
UAGAUAUGGUGAGGAUAUGCAAAGGAUCACCUUGUAGAAGGCAUCAGGGUAGAAGGUGCAAGGAUCACCUGUAAGGAUAUAUCC [pwkr2 ssNG1 DX.32],,,0.448,1.67
UCACUCACGUCAGGAUAUGGAUCGGAAAACGAUCCAGAAGGGACCUGCAAACUUGAGGAUCACCCAGGUUCCAAUAACGAGUGA [SameSame 12 - Jieux - Same State NG 1],,,0.194,0.307
UCCGCUAUCGCAGGAUAUUACAUGGGAAAGAAUACAUGAGGAUCACCCAUGUAAAAGAUCAUAAAUAAGAAGGGCGAUAGCGGA [Lame State 8 - Jieux - Same State NG 2],,,0.123,0.654
UUCAAAGGGUGAGGAUAUGCACAGGAUCACCGUGUAGAAGGCAUCAGGUAGAAGGUGCAGAGGAUCACCCUGUAAGGAUAUAUC [pwkr2 ssNG1 DX.15],,,0.719,1.02
